{"source": "patent US20120315270A1", "about": "(UNITED STATES OF AMERICA AS REPRESENTED BY THE, published 2012)", "key": {"[1]": {"target": "RSV F glycoprotein on GFP-expressing RSV (respiratory syncytial virus, UniProt P03420 26-574)", "assay": "cell-based or functional assay"}, "1lp1b-003_K272E": {"target": "T1, 1lp1b-003_K272E", "T1 construct": "also called 1lp1b(K272E)", "assay": "SPR (Example 7)"}, "1lp1b-003 F2Y H15N": {"target": "1lp1b-003 F2Y H15N", "assay": "co-crystallization"}, "[2]": {"target": "T2, Motavizumab fragment of antigen binding (Fab)", "T2 construct": "also called motavizumab Fab", "assay": "SPR (Biacore), motavizumab Fab immobilised, immunogen injected"}, "[3]": {"target": "motavizumab (as used in ITC)", "assay": "ITC"}, "[4]": {"target": "T2, Motavizumab fragment of antigen binding …", "assay": "SPR (Biacore), motavizumab Fab immobilised, immunogen injected", "remark": "listed apart in the source"}}, "note": "Where two headings read alike, the source gives them in different places.", "data": [{"binder": "motavizumab IgG (antibody, V domains shown) VH: QVTLRESGPALVKPTQTLTLTCTFSGFSLSTAGMSVGWIRQPPGKALEWLADIWWDDKKHYNPSLKDRLTISKDTSKNQVVLKVTNMDPADTATYYCARDMIFNFYFDVWGQGTTVTVSS VL: DIQMTQSPSTLSASVGDRVTITCSASSRVGYMHWYQQKPGKAPKLLIYDTSKLASGVPSRFSGSGSGTEFTLTISSLQPDDFATYYCFQGSGYPFTFGGGTKVEIK", "values": [{"measurement": "EC50 (read off the curve), neutralization of GFP-expressing RSV on HEp-2 cells, flow cytometry", "setting": "[1]", "result": "~0.06", "unit": "nM"}]}, {"binder": "motavizumab Fab (Fab, V domains shown, also called the Fab) VH: QVTLRESGPALVKPTQTLTLTCTFSGFSLSTAGMSVGWIRQPPGKALEWLADIWWDDKKHYNPSLKDRLTISKDTSKNQVVLKVTNMDPADTATYYCARDMIFNFYFDVWGQGTTVTVSS VL: DIQMTQSPSTLSASVGDRVTITCSASSRVGYMHWYQQKPGKAPKLLIYDTSKLASGVPSRFSGSGSGTEFTLTISSLQPDDFATYYCFQGSGYPFTFGGGTKVEIK", "values": [{"measurement": "binding result", "setting": "1lp1b-003_K272E", "result": "no binding"}]}, {"binder": "motavizumab (format in the assay not stated) (antibody, V domains shown) VH: QVTLRESGPALVKPTQTLTLTCTFSGFSLSTAGMSVGWIRQPPGKALEWLADIWWDDKKHYNPSLKDRLTISKDTSKNQVVLKVTNMDPADTATYYCARDMIFNFYFDVWGQGTTVTVSS VL: DIQMTQSPSTLSASVGDRVTITCSASSRVGYMHWYQQKPGKAPKLLIYDTSKLASGVPSRFSGSGSGTEFTLTISSLQPDDFATYYCFQGSGYPFTFGGGTKVEIK", "values": [{"measurement": "binding result", "setting": "1lp1b-003 F2Y H15N", "result": "binds"}]}, {"binder": "1s2xa_003 (designed binder, also called Cag-Z) GSPNSRVDELGFNEAERQKILDSNSSLMRNANEVRDKFIQNYATSLKDSNDPQDFLRRVQELRINMQKNFISFDAYYNYLNNLVLASANRASQELSFANDTIKNNDTKKLFSNEIADNFNNFTADEVARISDLVASYLPREYLPPFIDGNMMGVAFQILGIDDFGKKLNEIVQDIGTK", "values": [{"measurement": "Kd", "setting": "[2]", "result": 3, "unit": "µM"}, {"measurement": "-TdS", "setting": "[3]", "result": 9.9}, {"measurement": "Kd", "setting": "[3]", "result": 0.147, "unit": "µM"}, {"measurement": "dH", "setting": "[3]", "result": -19.2}, {"measurement": "Kd", "setting": "[4]", "result": 3, "unit": "µM"}]}, {"binder": "1s2xa_004 (designed binder) GSPNSRVDELGFNEAERQKILDSNSSLMRNANEVRDKFIQNYATSLKDSNDPQDFLRRVQELRINMQKNFISFDAYYNYLNNLVLASANRASQELSFINDTIKNNDTKKLFSNEAADNFNNFTADEVARISDLVASYLPREYLPPFIDGNMMGVAFQILGIDDFGKKLNEIVQDIGTK", "values": [{"measurement": "-TdS", "setting": "[3]", "result": 10.7}, {"measurement": "Kd", "setting": "[3]", "result": 0.275, "unit": "µM"}, {"measurement": "dH", "setting": "[3]", "result": -19.6}, {"measurement": "Kd", "setting": "[4]", "result": 3.95, "unit": "µM"}]}, {"binder": "1s2xa_002 (designed binder) GSPNSRVDELGFNEAERQKILDSNSSLMRNANEVRDKFIQNYATSLKDSNDPQDFLRRVQELRINMQKNFISFDAYYNYLNNLVLASANRASQELSFINDTIKNNDTKKLFSNEAADNFNNFTADEVARISDLVASYLPREYLPPFIDGNMMGVAFQILGIDDFGKKLNEIVQDIGTKY", "values": [{"measurement": "Kd", "setting": "[2]", "result": 3.64, "unit": "µM"}, {"measurement": "Kd", "setting": "[4]", "result": 3.64, "unit": "µM"}]}, {"binder": "1s2xa_001 (designed binder) GSPNSRVDELGFNEAERQKILDSNSSLMRNANEVRDKFIQNYATSLKDSNDPQDFLRRVQELRINMQKNFISFDAYYNYLNNLVLASANRCSQELSFANDTIKNNDTKKLFSNEIADNFNNFTADEVARISDLVASYLPREYLPPFIDGNMMGVAFQILGIDDFGKKLNEIVQDIGTKY", "values": [{"measurement": "Kd", "setting": "[2]", "result": 4.75, "unit": "µM"}, {"measurement": "Kd", "setting": "[4]", "result": 4.75, "unit": "µM"}]}, {"binder": "2eiaa_001 (designed binder) APRGYTTWVNTIQTNGLLNEASQNLFGILSVDATSEEMNAFLDVVPGQAGQKQILLDAIDKIADDWDNRHPLPNAPLVAPPQGPIPMTARFIRGLGVPRERQMEPAFDQFRQTYRQWIIEAMSEGIKVMIGKPKAQNIRQGAKEPYPEFVSRLLSQINDEGHPNDIKKLRSNTLTIQNANEECRNAMRHLRPSDTGAEKMYACRDIG", "values": [{"measurement": "binding result", "setting": "[4]", "result": "no binding"}]}]}
